{
  "source": "paper doi:10.1101/2025.03.30.646141v1",
  "proteins": {"B1": {"name": "APH(3’)-IIb WT (Pseudomonas aeruginosa PAO1) (protein)", "chain": "MHDAATSMPPQAPSTWADYLAGYRWRGQGEGCSAATVHRLEAARRPTLFVKQEVLSAHAELPAEIARLRWLHGAGIDCPQVLNETQSDGRQWLLMSAVPGDTLSALAQRGELEPERLVRLVAAALRRLHDLDPAACPFDHRLERRLDTVRQRVEAGLVDEADFDDDHRGRSATELYRLLLDRRPAVEDLVVAHGDACLPNLLAEGRRFSGFIDCGRLGVADRHQDLALAARDIEAELGAAWAEAFLVEYGGDIDGERLAYFRLLDEFF"}},
  "key": {"purified protein [1]": {"substrate": "NC[C@@H]1O[C@H](O[C@H]2[C@@H](O)[C@H](O[C@@H]3[C@@H](O)[C@H](N)C[C@H](N)[C@H]3O[C@H]3O[C@H](CO)[C@@H](O)[C@H](O)[C@H]3N)O[C@@H]2CO)[C@H](N)[C@@H](O)[C@@H]1O", "test": "purified protein", "details": "100 µM MgATP, Tris buffer pH 7.5, 25 °C"}, "purified protein [2]": {"substrate": "NC[C@H]1O[C@H](O[C@H]2[C@H](O[C@@H]3O[C@H](CO)[C@@H](O)[C@H]3O)[C@@H](O)[C@H](N)C[C@@H]2N)[C@H](N)[C@@H](O)[C@@H]1O", "test": "purified protein", "details": "100 µM MgATP, Tris buffer pH 7.5, 25 °C"}, "purified protein [3]": {"substrate": "NC[C@H]1O[C@H](O[C@H]2[C@H](O)[C@@H](O[C@H]3O[C@H](CO)[C@@H](O)[C@H](N)[C@H]3O)[C@H](N)C[C@@H]2N)[C@H](N)[C@@H](O)[C@@H]1O", "test": "purified protein", "details": "100 µM MgATP, Tris buffer pH 7.5, 25 °C"}, "purified protein [4]": {"substrate": "NC[C@H]1O[C@H](O[C@H]2[C@H](O)[C@@H](O[C@H]3O[C@H](CO)[C@@H](O)[C@H](N)[C@H]3O)[C@H](N)C[C@@H]2N)[C@H](O)[C@@H](O)[C@@H]1O", "test": "purified protein", "details": "100 µM MgATP, Tris buffer pH 7.5, 25 °C"}, "purified protein [5]": {"substrate": "NC[C@@H]1O[C@H](O[C@H]2[C@@H](O)[C@H](O[C@@H]3[C@@H](O)[C@H](N)C[C@H](N)[C@H]3O[C@H]3O[C@H](CN)[C@@H](O)[C@H](O)[C@H]3N)O[C@@H]2CO)[C@H](N)[C@@H](O)[C@@H]1O", "test": "purified protein", "details": "100 µM MgATP, Tris buffer pH 7.5, 25 °C"}, "steady-state kinetics [6]": {"substrate": "Nc1ncnc2c1ncn2[C@@H]1O[C@H](COP(=O)(O)OP(=O)(O)OP(=O)(O)O)[C@@H](O)[C@H]1O", "test": "steady-state kinetics", "type": "biochemical, Pseudomonas aeruginosa", "details": "100 µM kanamycin A, Tris buffer pH 7.5, Mg2+, 25 °C"}, "steady-state kinetics [7]": {"substrate": "Nc1nc2c(ncn2[C@@H]2O[C@H](COP(=O)(O)OP(=O)(O)OP(=O)(O)O)[C@@H](O)[C@H]2O)c(=O)[nH]1", "test": "steady-state kinetics", "type": "biochemical, Pseudomonas aeruginosa", "details": "100 µM kanamycin A, Tris buffer pH 7.5, Mg2+, 25 °C"}},
  "data": [
    {"protein": "B1", "values": [
      {"measurement": "Km", "setting": "purified protein [1]", "value": "0.50 ± 0.10", "unit": "µM"},
      {"measurement": "kcat", "setting": "purified protein [1]", "value": "2.64 ± 0.14", "unit": "s⁻¹"},
      {"measurement": "Km", "setting": "purified protein [2]", "value": "1.17 ± 0.26", "unit": "µM"},
      {"measurement": "Km", "setting": "purified protein [3]", "value": "0.19 ± 0.07", "unit": "µM"},
      {"measurement": "kcat", "setting": "purified protein [3]", "value": "2.13 ± 0.20", "unit": "s⁻¹"},
      {"measurement": "Km", "setting": "purified protein [4]", "value": "0.21 ± 0.10", "unit": "µM"},
      {"measurement": "kcat", "setting": "purified protein [4]", "value": "0.58 ± 0.04", "unit": "s⁻¹"},
      {"measurement": "Km", "setting": "purified protein [5]", "value": "0.27 ± 0.10", "unit": "µM"},
      {"measurement": "kcat", "setting": "purified protein [5]", "value": "1.98 ± 0.17", "unit": "s⁻¹"},
      {"measurement": "Km", "setting": "steady-state kinetics [6]", "value": 3, "unit": "µM"},
      {"measurement": "kcat", "setting": "steady-state kinetics [6]", "value": 0.38, "unit": "s⁻¹"},
      {"measurement": "Km", "setting": "steady-state kinetics [7]", "value": 320, "unit": "µM"},
      {"measurement": "kcat", "setting": "steady-state kinetics [7]", "value": 0.41, "unit": "s⁻¹"}
    ]}
  ]
}
